According to patent US20070053894:

Legend:
plasminogen, P00747 = molecular target: T1, plasminogen, P00747
T1 chain: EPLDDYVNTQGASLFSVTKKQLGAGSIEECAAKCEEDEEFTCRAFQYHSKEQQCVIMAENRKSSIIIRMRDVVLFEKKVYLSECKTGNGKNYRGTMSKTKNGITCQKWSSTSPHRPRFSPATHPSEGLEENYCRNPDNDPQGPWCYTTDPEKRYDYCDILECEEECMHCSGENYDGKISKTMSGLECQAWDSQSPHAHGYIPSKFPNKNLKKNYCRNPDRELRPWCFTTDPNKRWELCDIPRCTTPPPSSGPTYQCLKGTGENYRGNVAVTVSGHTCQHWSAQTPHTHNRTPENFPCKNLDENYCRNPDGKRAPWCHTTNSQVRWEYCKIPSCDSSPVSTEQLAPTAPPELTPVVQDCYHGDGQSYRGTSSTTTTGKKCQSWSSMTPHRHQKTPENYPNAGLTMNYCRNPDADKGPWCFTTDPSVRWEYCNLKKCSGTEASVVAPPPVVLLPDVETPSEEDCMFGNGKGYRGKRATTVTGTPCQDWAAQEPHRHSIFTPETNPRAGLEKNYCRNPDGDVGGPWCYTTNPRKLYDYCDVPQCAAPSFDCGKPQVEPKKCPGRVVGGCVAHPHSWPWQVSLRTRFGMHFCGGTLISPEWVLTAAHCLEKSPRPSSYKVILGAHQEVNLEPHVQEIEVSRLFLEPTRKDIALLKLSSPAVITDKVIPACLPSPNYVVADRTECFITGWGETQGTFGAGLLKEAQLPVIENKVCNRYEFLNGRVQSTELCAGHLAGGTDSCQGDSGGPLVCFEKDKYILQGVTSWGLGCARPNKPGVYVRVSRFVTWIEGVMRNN

[1] = molecular target: T2, Soluble human recombinant p97 (melanotransferrin)
T2 chain: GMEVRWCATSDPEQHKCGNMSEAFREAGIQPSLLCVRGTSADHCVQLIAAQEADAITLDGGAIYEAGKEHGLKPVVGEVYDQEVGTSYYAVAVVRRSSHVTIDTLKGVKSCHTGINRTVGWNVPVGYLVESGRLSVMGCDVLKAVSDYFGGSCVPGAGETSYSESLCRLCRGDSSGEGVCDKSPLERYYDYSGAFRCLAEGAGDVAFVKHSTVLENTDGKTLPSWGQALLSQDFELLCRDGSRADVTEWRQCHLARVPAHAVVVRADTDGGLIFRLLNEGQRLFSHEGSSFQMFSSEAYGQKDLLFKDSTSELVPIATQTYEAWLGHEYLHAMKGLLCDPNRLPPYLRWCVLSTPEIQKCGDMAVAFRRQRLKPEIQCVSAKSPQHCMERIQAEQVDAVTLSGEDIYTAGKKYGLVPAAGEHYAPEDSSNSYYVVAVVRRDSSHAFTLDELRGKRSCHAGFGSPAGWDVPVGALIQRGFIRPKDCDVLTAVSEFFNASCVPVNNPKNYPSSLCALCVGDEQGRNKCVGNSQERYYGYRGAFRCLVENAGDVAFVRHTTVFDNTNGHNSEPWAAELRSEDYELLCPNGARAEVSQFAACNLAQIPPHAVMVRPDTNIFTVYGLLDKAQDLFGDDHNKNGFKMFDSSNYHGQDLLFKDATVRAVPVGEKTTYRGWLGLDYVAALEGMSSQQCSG

B1: tissue plasminogen activator (tPA) (protein)
chain: SYQVICRDEKTQMIYQQHQSWLRPVLRSNRVEYCWCNSGRAQCHSVPVKSCSEPRCFNGGTCQQALYFSDFVCQCPEGFAGKCCEIDTRATCYEDQGISYRGTWSTAESGAECTNWNSSALAQKPYSGRRPDAIRLGLGNHNYCRNPDRDSKPWCYVFKAGKYSSEFCSTPACSEGNSDCYFGNGSAYRGTHSLTESGASCLPWNSMILIGKVYTAQNPSAQALGLGKHNYCRNPDGDAKPWCHVLKNRRLTWEYCDVPSCSTCGLRQYSQPQFRIKGGLFADIASHPWQAAIFAKHRRSPGERFLCGGILISSCWILSAAHCFQERFPPHHLTVILGRTYRVVPGEEEQKFEVEKYIVHKEFDDDTYDNDIALLQLKSDSSRCAQESSVVRTVCLPPADLQLPDWTECELSGYGKHEALSPFYSERLKEAHVRLYPSSRCTSQHLLNRTVTDNMLCAGDTRSGGPQANLHDACQGDSGGPLVCLNDGRMTLVGIISWGLGCGQKDVPGVYTKVTNYLDWIRDNMRP
apparent Km of tPA for plasminogen, with 50 nM p97 (plasminogen, P00747): decreases the apparent Km of tPA for plasminogen by 5-fold from 280 to 52 nM | apparent Km of tPA for plasminogen, without p97 (plasminogen, P00747): decreases the apparent Km of tPA for plasminogen by 5-fold from 280 to 52 nM | VLK-pNA hydrolysis by 75 nM tPA with 70 nM p97, without plasminogen [1]: Addition of p97 to tPA elicits no observable effect
